Assay [1] has as its target Bcl-2 (mouse; recombinant, and endogenous in mouse heart) (UniProt P10417). The assay is described as follows: GST pull-down after kinase reaction. As to conditions: sites T108.
The next assay concerns the target Bcl-xL (recombinant) (UniProt Q07817). Briefly: GST pull-down after kinase reaction. The settings on record: reference: GST-Beclin1-WT without Mst1; sites T108.

Results on 2 substances are retold here after article PMC3823824.

Take “Beclin1 (recombinant GST-Beclin1; adenoviral Beclin1 constructs) Beclin1-N2, 72-163 (from UniProt Q14457) GST-Beclin1-N2 treated with Mst1 and ATP”: the “binding against the reference” value in assay [1] (reference: GST-Beclin1-N2 without Mst1) was “stronger”.

Regarding “Beclin1 (recombinant GST-Beclin1; adenoviral Beclin1 constructs) (from UniProt Q14457) GST-Beclin1-WT treated with Mst1 and ATP”, the “binding against the reference” value (with Bcl-xL (recombinant); in assay [1] (reference: GST-Beclin1-WT without Mst1)) was “stronger” throughout.
